Results on three molecules are retold here after publication PMC2275097.

Usually Kd stands for a measure of binding affinity in units of concentration. High values mean lower affinity, low ones higher affinity.

Read-outs that look alike come from different tables or passages of the source.

Series [1] addresses T1, hLon (human Lon protease) (Homo sapiens, UniProt P36776 68-959).
T1 sequence: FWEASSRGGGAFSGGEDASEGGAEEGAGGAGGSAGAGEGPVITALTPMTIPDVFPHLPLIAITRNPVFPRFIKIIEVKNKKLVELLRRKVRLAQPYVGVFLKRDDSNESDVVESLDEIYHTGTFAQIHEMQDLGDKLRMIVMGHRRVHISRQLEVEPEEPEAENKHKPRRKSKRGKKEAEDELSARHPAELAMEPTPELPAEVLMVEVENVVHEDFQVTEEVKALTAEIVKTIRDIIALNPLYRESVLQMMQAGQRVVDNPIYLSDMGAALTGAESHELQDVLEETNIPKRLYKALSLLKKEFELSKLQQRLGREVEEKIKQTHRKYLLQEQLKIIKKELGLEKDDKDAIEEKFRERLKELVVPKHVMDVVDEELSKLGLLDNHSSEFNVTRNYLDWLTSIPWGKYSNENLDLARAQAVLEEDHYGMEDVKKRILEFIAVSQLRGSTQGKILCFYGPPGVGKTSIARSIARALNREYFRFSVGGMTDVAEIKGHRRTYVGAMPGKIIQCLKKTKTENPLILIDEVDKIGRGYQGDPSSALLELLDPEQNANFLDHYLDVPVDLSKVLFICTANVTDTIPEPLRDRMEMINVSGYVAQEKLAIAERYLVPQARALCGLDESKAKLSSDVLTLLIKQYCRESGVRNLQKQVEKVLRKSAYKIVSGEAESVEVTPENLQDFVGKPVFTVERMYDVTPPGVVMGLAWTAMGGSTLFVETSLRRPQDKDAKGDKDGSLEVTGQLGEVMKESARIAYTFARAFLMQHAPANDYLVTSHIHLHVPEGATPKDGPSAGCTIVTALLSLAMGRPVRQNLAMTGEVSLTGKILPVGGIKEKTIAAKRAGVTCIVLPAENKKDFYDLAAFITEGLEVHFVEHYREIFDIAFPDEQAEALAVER
Put plainly: ITC. (In general: ITC needs no label: the signal is the heat of the interaction.)

For series [2], the target named is T1, hLon (human Lon protease). As to the kind of experiment: ITC. The source holds these as a separate data set.
Series [3] has as its target T1, hLon (human Lon protease). As to the kind of experiment: ITC. The source holds these as a separate data set.
Series [4] addresses T1, hLon (human Lon protease). Put plainly: ITC. This is another data set of the same source.
The target of series [5] is T1, hLon (human Lon protease). Put plainly: competition.
Series [6] has as its target T1, hLon (human Lon protease). As to the kind of experiment: ITC. The source holds these as a separate data set.
In series [7] the target is T1, hLon (human Lon protease). Put plainly: ITC. The source holds these as a separate data set.

For AATAATGTGTTAGTTGGGGGGTGA (structured_DNA) [LSPas], the Ka was 3.03 ± 0.83 10^5 M^-1 in series [1], 2.11 ± 0.11 10^5 M^-1 in series [2], 2.45 ± 0.43 10^5 M^-1 in series [3] and 2.6 ± 0.72 10^5 M^-1 in series [4].

For the molecule GTGTTAGTTGGGGGGTGA (structured_DNA) [LSPas18], in series [5], the binding result is listed as “binds”.

TGGGGGGT (structured_DNA) [TG6T]: the Ka in series [1] was 1.36 ± 0.22 10^5 M^-1; in series [3], 1.35 ± 0.89 10^5 M^-1; in series [4], 3.48 ± 0.36 10^5 M^-1; in series [7] it was 1.24 ± 0.58 10^5 M^-1. This molecule registered a Kd in series [6] of 7.35 µM.
